Laboratory results: publication PMC5662698, “Conformation transitions of the polypeptide-binding pocket support an active substrate release from Hsp70s” (Nature Communications, 2017)

How the values were obtained:
[1] = molecular target: T1, TMR-labeled DnaK (DnaK FRET construct C15A/M404C/T437C labelled with tetramethylrhodamine) (E. coli, UniProt P0A6Y8 1-638, C15A | M404C | T437C, tetramethylrhodamine (TMR, from 5-IATR) on both introduced cysteines (M404C, T437C)); assay: other fluorescence titration; quenching of two TMR labels on DnaK (called FRET by the paper); 30 nM TMR-labeled DnaK, 2 mM ATP, buffer C (30 mM Tris-HCl pH 7.5, 25 mM KCl, 3 mM MgCl2, 10% glycerol), room temperature, DnaJ added at indicated concentrations; details: both partners purified
T1 construct: DnaK, an E. coli Hsp70, with C15A, M404C, T437C; ATP (2 mM) present in the DnaJ experiments; source: E. coli dnak deletion strain BB205 (plasmid pBB46), purified, labelled with 5-IATR, HiTrap Q, monomer peak used

[2] = molecular target: T2, TMR-labeled BiP protein (BiP-C41A/C420A/V429C/T462C labelled with tetramethylrhodamine) (human, UniProt P11021 19-654, C41A | C420A | V429C | T462C, tetramethylrhodamine (TMR, from 5-IATR) on both introduced cysteines (V429C, T462C)); assay: other fluorescence titration; quenching of two TMR labels on BiP (called FRET by the paper); 300 nM TMR-labeled BiP, 2 mM ATP, buffer B (30 mM Tris-HCl pH 7.0, 100 mM KCl, 3 mM MgCl2, 3 mM CaCl2, 10% glycerol), room temperature, serial dilutions of ERdj3, one-site binding fit; details: both partners purified
T2 construct: human BiP with C41A, C420A, V429C, T462C; ATP (2 mM) present in the ERdj3 experiments; also called TMR-labeled BiP FRET protein; source: E. coli BL21(DE3) Gold, purified, labelled with 5-IATR, HiTrap Q, monomer peak used; not shown: His6, N-terminal, cleaved; Smt3, N-terminal, cleaved
T2 sequence (P11021 19-654 C41A/C420A/V429C/T462C): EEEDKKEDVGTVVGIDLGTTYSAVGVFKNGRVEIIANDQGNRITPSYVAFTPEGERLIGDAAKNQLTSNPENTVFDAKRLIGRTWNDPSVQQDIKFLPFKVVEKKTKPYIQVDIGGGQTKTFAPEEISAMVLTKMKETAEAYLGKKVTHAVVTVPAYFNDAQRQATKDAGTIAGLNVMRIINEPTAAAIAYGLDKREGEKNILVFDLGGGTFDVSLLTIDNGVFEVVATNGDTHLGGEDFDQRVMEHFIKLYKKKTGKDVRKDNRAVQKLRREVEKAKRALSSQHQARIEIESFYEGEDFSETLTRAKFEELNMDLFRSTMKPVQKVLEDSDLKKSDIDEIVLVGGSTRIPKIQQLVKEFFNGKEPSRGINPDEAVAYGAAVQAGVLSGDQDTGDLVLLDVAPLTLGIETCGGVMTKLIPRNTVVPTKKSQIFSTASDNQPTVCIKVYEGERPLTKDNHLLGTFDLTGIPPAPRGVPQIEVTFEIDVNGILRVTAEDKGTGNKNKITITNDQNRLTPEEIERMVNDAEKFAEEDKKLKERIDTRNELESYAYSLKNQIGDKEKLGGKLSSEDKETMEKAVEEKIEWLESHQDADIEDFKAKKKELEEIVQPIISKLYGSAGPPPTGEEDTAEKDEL

Row | Binder | fold change of the dissociation constant against ERdj3-BiP [1] [times lower] | Kd [2] [nM]
1 | DnaJ (natural protein, UniProt P08622 1-376, looked up, DnaJ, the Hsp40 partner of DnaK; also called Hsp40 co-chaperone DnaJ; source: E. coli BL21(DE3) Gold, purified (HisTrap, Ulp1, HisTrap, Superdex 200); not shown: Smt3, N-terminal, cleaved; His6 (from the vector pSMT3), N-terminal, cleaved) MAKQDYYEILGVSKTAEEREIRKAYKRLAMKYHPDRNQGDKEAEAKFKEIKEAYEVLTDSQKRAAYDQYGHAAFEQGGMGGGGFGGGADFSDIFGDVFGDIFGGGRGRQRAARGADLRYNMELTLEEAVRGVTKEIRIPTLEECDVCHGSGAKPGTQPQTCPTCHGSGQVQMRQGFFAVQQTCPHCQGRGTLIKDPCNKCHGHGRVERSKTLSVKIPAGVDTGDRIRLAGEGEAGEHGAPAGDLYVQVQVKQHPIFEREGNNLYCEVPINFAMAALGGEIEVPTLDGRVKLKVPGETQTGKLFRMRGKGVKSVRGGAQGDLLCRVVVETPVGLNERQKQLLQELQESFGGPTGEHNSPRSKSFFDGVKKFFDDLTR | ~10 | 
2 | ERdj3 (natural protein, UniProt Q9UBS4 23-358, looked up, ERdj3, an Hsp40 co-chaperone of BiP in the ER; plasmid a gift of Dr. Linda Hendershot; also called Hsp40 ERdj3; source: M15 E. coli, purified (HisTrap, 2 M urea in the lysis buffer, dialysis)) GRDFYKILGVPRSASIKDIKKAYRKLALQLHPDRNPDDPQAQEKFQDLGAAYEVLSDSEKRKQYDTYGEEGLKDGHQSSHGDIFSHFFGDFGFMFGGTPRQQDRNIPRGSDIIVDLEVTLEEVYAGNFVEVVRNKPVARQAPGKRKCNCRQEMRTTQLGPGRFQMTQEVVCDECPNVKLVNEERTLEVEIEPGVRDGMEYPFIGEGEPHVDGEPGDLRFRIKVVKHPIFERRGDDLYTNVTISLVESLVGFEMDITHLDGHKVHISRDKITRPGAKLWKKGEGLPNFDNNNIKGSLIITFDVDFPKEQLTEEAREGIKQLLKQGSVQKVYNGLQGY |  | 1670 ± 110
